Data taken from article PMC11147762.

Legend:
DDX41-R525H = DDX41-R525H (Homo sapiens, UniProt Q9UJV9 1-622, R525H); assay: EMSA; EMSA, 0-1300 nM protein with 10 nM nucleic acid; buffer, salt, pH and temperature not in material; settings: protein: recombinant; label: 5'-Cy5 on oligo1; 5'-Cy3 on RNA; bubble of oligo1/oligo2 with 25-nt RNA paired to oligo2
DDX41-ΔHel-WT (DDX41 D3) [1] = target: T1, DDX41-ΔHel-WT (DDX41 D3) (Homo sapiens, UniProt Q9UJV9 1-406+568-622, internal_change); assay: as above; settings: protein: recombinant, label: 5'-Cy5 on oligo1
DDX41-ΔHel-Y259C = DDX41-ΔHel-Y259C (Homo sapiens, UniProt Q9UJV9 1-406+568-622, Y259C;internal_change); assay: as above; settings: protein: recombinant; label: 5'-Cy5 on oligo1; 5'-Cy3 on RNA; bubble of oligo1/oligo2 with 25-nt RNA paired to oligo2
DDX41-ΔHel-WT (DDX41 D3) [2] = target: T1, DDX41-ΔHel-WT (DDX41 D3); assay: EMSA; m6A had no effect on affinity; EMSA, 0-1300 nM protein with 10 nM nucleic acid; buffer, salt, pH and temperature not in material; settings: protein: recombinant; label: 5'-Cy5 on oligo1; 5'-Cy3 on RNA; bubble of oligo1/oligo2 with 25-nt RNA paired to oligo2

T1 sequence (Q9UJV9 other isoform, or with tags, fused parts or gaps | mutant): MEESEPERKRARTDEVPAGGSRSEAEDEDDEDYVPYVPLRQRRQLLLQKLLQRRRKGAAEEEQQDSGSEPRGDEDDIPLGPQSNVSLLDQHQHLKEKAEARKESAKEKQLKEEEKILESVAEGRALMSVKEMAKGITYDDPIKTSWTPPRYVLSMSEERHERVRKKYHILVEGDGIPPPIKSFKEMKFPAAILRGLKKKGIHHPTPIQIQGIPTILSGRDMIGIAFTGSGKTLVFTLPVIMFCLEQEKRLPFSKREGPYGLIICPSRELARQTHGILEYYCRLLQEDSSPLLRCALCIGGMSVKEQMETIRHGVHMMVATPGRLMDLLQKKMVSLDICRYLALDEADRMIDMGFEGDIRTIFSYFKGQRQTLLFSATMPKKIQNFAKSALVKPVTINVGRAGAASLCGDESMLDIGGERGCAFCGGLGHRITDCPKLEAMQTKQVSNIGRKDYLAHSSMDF
DDX41-R525H, sequence (Q9UJV9 whole entry R525H): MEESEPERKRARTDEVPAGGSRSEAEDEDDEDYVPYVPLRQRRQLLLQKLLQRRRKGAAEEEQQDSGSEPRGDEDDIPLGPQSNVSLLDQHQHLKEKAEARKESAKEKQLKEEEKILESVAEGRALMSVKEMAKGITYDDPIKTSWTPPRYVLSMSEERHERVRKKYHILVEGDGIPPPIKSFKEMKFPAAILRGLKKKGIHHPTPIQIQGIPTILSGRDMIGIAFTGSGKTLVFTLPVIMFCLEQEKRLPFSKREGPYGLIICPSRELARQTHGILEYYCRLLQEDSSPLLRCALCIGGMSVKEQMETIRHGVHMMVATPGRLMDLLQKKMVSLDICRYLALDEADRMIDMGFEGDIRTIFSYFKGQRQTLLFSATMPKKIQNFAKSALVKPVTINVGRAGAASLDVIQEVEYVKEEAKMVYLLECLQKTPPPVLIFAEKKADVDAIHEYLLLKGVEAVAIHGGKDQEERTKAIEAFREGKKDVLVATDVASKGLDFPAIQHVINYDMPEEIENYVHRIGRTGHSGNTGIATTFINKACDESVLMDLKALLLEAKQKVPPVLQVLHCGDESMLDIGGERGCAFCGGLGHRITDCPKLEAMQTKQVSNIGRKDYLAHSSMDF
DDX41-ΔHel-Y259C, sequence (Q9UJV9 other isoform, or with tags, fused parts or gaps Y259C/| Y259C Y259C): as the sequence (Q9UJV9 other isoform, or with tags, fused parts or gaps | mutant) above, with Y259C counted along it

B1: R-loop (mixed)
DNA 1: GCCAGGGACGAGGTGAACCTGCAGGTGGGCGGCTACTACTTAGATGTCATCCGAGGCTTATTGGTAGAATTCGGCAGCGTCATGCGACGGC
DNA 2: GCCGTCGCATGACGCTGCCGAATTCTACCACGCGATTCATACCTGTCGTGCCAGCTGCTTTGCCCACCTGCAGGTTCACCTCGTCCCTGGC
RNA: GCAGCUGGCACGACAGGUAUGAAUC
B1: binds (DDX41-R525H); binds (DDX41-ΔHel-WT (DDX41 D3) [1]; 5'-Cy3 on RNA, bubble of oligo1/oligo2 with 25-nt RNA paired to oligo2); binds (DDX41-ΔHel-Y259C).

B2: D-loop (structured_DNA)
DNA 1: B1 DNA 1
DNA 2: B1 DNA 2
DNA 3: GCAGCTGGCACGACAGGTATGAATC
B2: binds (DDX41-ΔHel-WT (DDX41 D3) [1]; bubble with 25-nt DNA paired to oligo2).

B3: m6A R-loop (mixed)
DNA 1: B1 DNA 1
DNA 2: B1 DNA 2
RNA: GCAGCUGGCACGACAGGUAUGAAUC
modifications: m6A in RNA strand; positions not visible in material
B3: binds (DDX41-ΔHel-WT (DDX41 D3) [2]).
